Test results: patent US20080230399A1, “Fructosylamine Oxidase” (priority 2003, published 2008)

Test: Determination of enzymatic activity (POD/Phenol/4A.A. method)
Assay type: biochemical
Conditions: substrate 10 mM, PPb pH 7.0 50 mM, absorbance at 505 nm; recombinant FAO produced by Escherichia coli compared with enzyme produced by wild-type Pichia sp. N1-1
Protocol: Reactivity of the purified enzyme prepared in Example 5 to fructosyl valine, N′-fructosyl lysine, fructosyl glycine, fructosyl alanine, fructosyl leucine, fructosyl phenylalanine, glucose and sarcosine was examined. The measurement was conducted using a solution containing a substrate (10 mM), PPb (pH 7.0, 50 mM), phenol (1.5 mM), 4-aminoantipyrine (1.5 mM) and peroxidase (2 U/ml), and changes in the absorbance at 505 nm were measured according to the POD/Phenol/4A.A. method. […] N1-1 strain of wild type.

activity and substrate specificity of the enzyme: higher activity
B1: recombinant FAO: Fructosylamine oxidase derived from Pichia sp. N1-1 (SEQ ID NO: 1), recombinantly produced in Escherichia coli DH5α/pTN1 and purified (protein, listed as Pichia sp.)
chain: MESIIIVGAGTFGLSTALQLARDGYKNIKCFDKFPVPSEIAAGNDSNKIFHYDYVAPLAKPNSKERLSLEALHLWKTDPVYKPYYHPVGFILAASSDAPLLHDKEYYEELQKNGLRNYRYISTPEEFREYLPILKGPLPNWRGYVLDGDNGWLHARDSLKSAYEECKRLGVEFVFGDDGEIVELLNENGKLTGIRARSGAIFSAQKYVLSSGANAVTLLNFQRQLEGKCFTLAHFKVTDEEAKAFKSLPVLFNAEKGFFFEADENNEIKICNEYPGFTHTNESGESIPLYRMEIPLESALEIRQYLKETMPQFADRPFTKTRICWCTDSPDMQLILCTHPEYTNLIVASGDSGNSFKIMPIIGKYVSKVVTKGDKGLDPEDKECWKWRPETWDKRGQVRWGGRYRVADLNEIEEWVSVENPTPHKLE
